# Test results taken from US20070190601.
# Substitutions are numbered along the chain they refer to.
# Experiments:
# Experiment in all cases: cell_activity
# [1] = test system: T1, NLS-int-2 MEPKKKRKV added upstream of -8 M (SEQ 58) (Streptomyces phage phiC31); conditions: DF-1 cells; 6 colonies avg
# T1 sequence: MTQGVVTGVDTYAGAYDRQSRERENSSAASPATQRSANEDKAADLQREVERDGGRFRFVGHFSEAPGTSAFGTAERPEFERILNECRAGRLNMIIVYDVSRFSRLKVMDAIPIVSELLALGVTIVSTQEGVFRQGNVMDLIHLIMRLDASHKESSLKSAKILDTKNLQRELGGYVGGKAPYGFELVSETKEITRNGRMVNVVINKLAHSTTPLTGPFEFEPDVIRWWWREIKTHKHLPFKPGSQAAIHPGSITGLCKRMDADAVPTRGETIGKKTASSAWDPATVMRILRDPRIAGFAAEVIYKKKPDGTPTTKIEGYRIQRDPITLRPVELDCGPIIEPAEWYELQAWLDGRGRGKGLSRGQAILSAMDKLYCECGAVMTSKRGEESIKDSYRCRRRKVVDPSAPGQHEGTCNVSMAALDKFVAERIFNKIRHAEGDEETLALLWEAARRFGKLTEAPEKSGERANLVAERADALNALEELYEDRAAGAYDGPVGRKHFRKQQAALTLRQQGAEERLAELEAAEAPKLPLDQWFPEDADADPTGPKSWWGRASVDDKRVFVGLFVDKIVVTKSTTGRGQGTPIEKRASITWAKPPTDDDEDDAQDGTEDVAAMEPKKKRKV
# [2] = test system: T2, int-NLS234 insertion PPKKKRKVE between G and S at position 234 (SEQ 61) (Streptomyces phage phiC31); conditions: DF-1 cells; 84 colonies avg
# T2 sequence: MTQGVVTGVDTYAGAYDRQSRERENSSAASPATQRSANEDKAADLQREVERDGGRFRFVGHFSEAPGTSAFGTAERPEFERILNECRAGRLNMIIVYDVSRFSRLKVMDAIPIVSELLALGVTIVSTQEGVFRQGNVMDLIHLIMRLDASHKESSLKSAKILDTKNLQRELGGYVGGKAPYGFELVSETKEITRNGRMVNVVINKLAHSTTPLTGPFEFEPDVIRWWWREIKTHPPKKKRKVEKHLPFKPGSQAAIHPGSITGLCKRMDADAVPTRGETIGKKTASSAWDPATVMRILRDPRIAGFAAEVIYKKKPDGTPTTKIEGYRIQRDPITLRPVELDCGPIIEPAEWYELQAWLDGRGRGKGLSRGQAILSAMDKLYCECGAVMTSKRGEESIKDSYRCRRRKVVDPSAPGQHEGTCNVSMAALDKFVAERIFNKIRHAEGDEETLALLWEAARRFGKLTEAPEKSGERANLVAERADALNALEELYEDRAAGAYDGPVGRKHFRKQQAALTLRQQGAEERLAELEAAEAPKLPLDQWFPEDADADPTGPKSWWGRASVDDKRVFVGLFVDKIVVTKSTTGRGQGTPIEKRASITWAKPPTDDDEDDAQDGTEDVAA
# [3] = test system: T3, c-myc-NLS-int N-terminal MTQGVVT replaced with MAPAAKRLKLDSL (SEQ 59), NLS joined at -1 G (Streptomyces phage phiC31); conditions: DF-1 cells; 56.2 colonies avg
# T3 sequence: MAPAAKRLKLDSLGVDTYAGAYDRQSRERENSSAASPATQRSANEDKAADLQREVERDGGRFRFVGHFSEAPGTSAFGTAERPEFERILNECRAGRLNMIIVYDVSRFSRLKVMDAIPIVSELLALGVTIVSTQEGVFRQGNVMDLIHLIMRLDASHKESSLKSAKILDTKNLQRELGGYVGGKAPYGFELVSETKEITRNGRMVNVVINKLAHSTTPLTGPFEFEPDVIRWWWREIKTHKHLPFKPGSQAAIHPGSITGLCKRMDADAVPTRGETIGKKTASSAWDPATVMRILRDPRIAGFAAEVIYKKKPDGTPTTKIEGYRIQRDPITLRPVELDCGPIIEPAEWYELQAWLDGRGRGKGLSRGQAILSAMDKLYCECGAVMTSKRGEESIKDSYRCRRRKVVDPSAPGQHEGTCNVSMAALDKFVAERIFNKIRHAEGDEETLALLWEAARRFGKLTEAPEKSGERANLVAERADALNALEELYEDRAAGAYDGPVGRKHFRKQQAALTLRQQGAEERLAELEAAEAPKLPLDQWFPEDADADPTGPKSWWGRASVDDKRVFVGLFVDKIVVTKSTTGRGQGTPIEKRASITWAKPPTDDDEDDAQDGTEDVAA
# [4] = test system: T4, NLS-int-1 N-terminal MTQGVVTG replaced with MEPKKKRK (SEQ 57), joined at +1 V (Streptomyces phage phiC31); conditions: DF-1 cells; 2.5 colonies avg, background level; reflects recombination activity, not binding
# T4 sequence: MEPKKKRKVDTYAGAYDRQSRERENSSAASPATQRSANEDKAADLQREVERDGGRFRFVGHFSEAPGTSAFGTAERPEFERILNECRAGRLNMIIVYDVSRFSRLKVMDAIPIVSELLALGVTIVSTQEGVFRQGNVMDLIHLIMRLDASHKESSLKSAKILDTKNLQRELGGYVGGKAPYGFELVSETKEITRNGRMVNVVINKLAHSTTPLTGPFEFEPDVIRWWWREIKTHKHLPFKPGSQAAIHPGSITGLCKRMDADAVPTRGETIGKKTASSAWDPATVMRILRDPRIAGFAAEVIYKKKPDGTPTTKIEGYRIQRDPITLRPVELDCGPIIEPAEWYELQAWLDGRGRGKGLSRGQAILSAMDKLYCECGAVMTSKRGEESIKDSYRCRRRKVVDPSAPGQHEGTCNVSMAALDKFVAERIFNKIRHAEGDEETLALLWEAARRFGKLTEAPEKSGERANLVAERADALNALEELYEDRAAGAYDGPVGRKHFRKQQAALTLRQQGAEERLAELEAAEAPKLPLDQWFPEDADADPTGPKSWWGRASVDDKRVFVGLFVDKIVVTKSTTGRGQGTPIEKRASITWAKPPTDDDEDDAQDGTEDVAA
# [5] = test system: T5, 3rdGTG-int-NLS234 insertion PPKKKRKVE between G and S at position 234 (SEQ 61) (Streptomyces phage phiC31); conditions: DF-1 cells; 30 colonies avg
# T5 sequence: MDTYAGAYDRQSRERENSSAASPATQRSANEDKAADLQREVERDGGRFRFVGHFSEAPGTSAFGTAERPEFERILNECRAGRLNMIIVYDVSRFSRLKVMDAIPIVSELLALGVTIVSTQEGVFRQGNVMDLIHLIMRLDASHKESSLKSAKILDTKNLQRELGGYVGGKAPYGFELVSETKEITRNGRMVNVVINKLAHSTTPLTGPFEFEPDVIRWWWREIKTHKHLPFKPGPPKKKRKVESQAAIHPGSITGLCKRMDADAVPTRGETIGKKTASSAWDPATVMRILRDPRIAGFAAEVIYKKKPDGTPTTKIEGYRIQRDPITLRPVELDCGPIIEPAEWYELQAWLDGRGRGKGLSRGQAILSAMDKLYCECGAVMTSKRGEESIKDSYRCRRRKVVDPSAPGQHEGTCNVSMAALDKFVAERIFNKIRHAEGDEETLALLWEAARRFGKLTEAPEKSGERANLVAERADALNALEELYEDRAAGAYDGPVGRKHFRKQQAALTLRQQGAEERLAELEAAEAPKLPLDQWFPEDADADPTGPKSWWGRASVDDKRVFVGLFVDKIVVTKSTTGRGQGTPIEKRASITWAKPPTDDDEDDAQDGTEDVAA
# [6] = test system: T6, phiC31 integrase (wild type, -8 ATG start) (Streptomyces phage phiC31); conditions: integration of pCMV-pur-attB into chicken DF-1 genome pseudo-attP sites; 103.8 colonies avg
# T6 sequence: T4 sequence with E2T, P3Q, K4G, K5V, K6V, R7T, K8G
# [7] = test system: T7, 3rdGTG-int (+1 start) (Streptomyces phage phiC31); conditions: DF-1 cells; 14 colonies avg
# T7 sequence: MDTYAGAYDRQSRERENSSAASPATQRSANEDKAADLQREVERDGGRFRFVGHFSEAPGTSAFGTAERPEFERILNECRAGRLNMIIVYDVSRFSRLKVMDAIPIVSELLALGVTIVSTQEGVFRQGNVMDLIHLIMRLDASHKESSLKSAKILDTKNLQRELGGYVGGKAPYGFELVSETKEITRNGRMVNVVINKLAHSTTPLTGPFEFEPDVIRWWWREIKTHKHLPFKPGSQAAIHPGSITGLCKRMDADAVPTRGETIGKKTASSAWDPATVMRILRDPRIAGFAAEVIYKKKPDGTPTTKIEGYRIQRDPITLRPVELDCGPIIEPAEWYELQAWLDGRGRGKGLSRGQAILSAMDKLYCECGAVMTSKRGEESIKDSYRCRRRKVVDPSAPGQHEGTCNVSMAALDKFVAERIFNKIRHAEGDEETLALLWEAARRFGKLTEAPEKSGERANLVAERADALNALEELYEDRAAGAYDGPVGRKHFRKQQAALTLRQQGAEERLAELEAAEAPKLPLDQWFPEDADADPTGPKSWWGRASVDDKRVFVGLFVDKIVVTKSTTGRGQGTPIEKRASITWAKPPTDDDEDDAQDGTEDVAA
# [8] = test system: T8, 3rdGTG-int-NLS PKKKRKV appended after A605 (Streptomyces phage phiC31); conditions: DF-1 cells; 10 colonies, one experiment
# T8 sequence: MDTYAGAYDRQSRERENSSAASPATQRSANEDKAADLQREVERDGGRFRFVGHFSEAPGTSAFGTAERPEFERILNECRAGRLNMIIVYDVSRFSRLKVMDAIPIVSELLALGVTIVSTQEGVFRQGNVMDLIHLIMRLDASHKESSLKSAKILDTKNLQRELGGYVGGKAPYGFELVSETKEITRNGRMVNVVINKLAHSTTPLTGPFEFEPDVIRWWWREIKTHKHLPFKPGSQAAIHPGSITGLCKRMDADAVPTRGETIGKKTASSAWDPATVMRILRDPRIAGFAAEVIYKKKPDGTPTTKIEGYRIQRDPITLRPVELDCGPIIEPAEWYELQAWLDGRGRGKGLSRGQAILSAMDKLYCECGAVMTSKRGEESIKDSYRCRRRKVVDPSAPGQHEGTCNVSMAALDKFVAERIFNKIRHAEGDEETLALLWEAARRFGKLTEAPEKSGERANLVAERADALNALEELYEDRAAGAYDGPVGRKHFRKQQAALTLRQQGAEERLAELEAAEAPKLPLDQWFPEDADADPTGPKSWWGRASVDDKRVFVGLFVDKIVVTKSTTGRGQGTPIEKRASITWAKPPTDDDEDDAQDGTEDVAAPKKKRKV
substance,measurement,setting,value
phiC31 attB (donor plasmid),activity (fold over no integrase),[1],2.3
same,activity (fold over no integrase),[2],32.3
same,activity (fold over no integrase),[3],21.6
same,activity (fold over no integrase),[4],1
same,activity (fold over no integrase),[5],11.5
same,activity (fold over no integrase),[6],39.9
same,activity (fold over no integrase),[7],5.4
same,activity (fold over no integrase),[8],3.8
